Experiment: yeast display, Sf9 membrane polyspecificity reagent, FACS + sequencing; frameworks hold sequencing errors
Outline: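 Galactose induction of a Saccharomyces cerevisiae BJ5465 synthetic nanobody display library ran 36–48 hours. The cells were then stained for 1 hour at 4 °C with 10% biotinylated, detergent-solubilized Sf9 membrane reagent, pulled down on streptavidin microbeads and FACS-sorted into low and high (top ~1%) gates on expression and reagent-binding fluorescence. Labels for polyreactivity follow the gate of origin.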

Row | Sequence | polyreactivity (PSR sort gate)
1 | QVQLVESGGGLVQAGGSLRLSCAASGRTFDVYTMGWYRHAAGKERELVAAITARGARTYYADSVKGRFTISRDNAKNTVYLQMNSLKPEDTAVYYCAAKSYRHSLYDYWGQGTQVTVSS | high polyreactivity
2 | QVHLVESGGGLVQAGGSLRLSCAASGFIFKKYAMGWYRQAPGKERELVAAIDSSGSTTYADSVKGRFTISRDNAKNTVYLQMNSLKPEDTAVYYCAAPFTVYRHAPDMDYWGQGTQVTVSS | low polyreactivity
3 | QVQLVESGGGLVHAGGSLRLSCAAYGIIFQYYTMGWYRQAPGKERELVASITYDGDSTYYADSVKGRFTISLDNAKNTVYLQMNSLKPEDTALYYCAAVANGFWTYEYWGQGTQVTVSS | low polyreactivity
4 | QVQLVESGGGLVQAGGSLRLSCAASGFTFTRYAMGWYRQAPGKERELVAAISSCGDTYYADSVKGRFTISRDNAKNTVYLQMNSLKPEDTAVYYCAADQSSLDYGNDYWGQGTQVTVSS | low polyreactivity
5 | QVQLVESGGGLVQAGGSLRLSCAASGFTFSYYAMGWYRQAPGKERELVAAISRSGGSPYYADSVKGRFTISRDNAKYTVYLQMNSLKPADTAVYYCATDLSYRHGYWGQGTQVTVSS | high polyreactivity
6 | QVQLVESGGCLVQAGGSLRLSCAASGFIFRRYALGWNRQAPGKERELVAAISSSGGRTTYADSVKGRFTISRDNAKNTVYLQMNSLKPEDTAVYYCNADLCPGNHDGYWGQGTQVTVSS | low polyreactivity
7 | QVQLVESGGGLDQAGGSLRLSCAASGLTFYYYAMGWYRQAPGKERELVAAITWRGVSTYYADSVKGRFTISRDNAKNTVYLQMNSLKPEDTAVYYCAAGWTSSRYDFWGQGTQVTVSS | high polyreactivity
8 | QVQLVESVGGLVQAGGSLRLSCAASGFTFHAYAMGWYRQAPGKERELVAVITRGGSTYYADSVKRRFTISLDNAKNTVYLQMKSLKPEDTAVYYCAAVRTKDWRGPEMDYWGQGTQVTVSS | high polyreactivity
9 | QVQLVESGGGLVQAGGSLRLSCPASGRIFDYYAMGRYRQAPGKERELVARITSGGTTNYADSVKGRFTISRDNAKNTVFLQMNSLKPEDTAVYYCNAQDYCDPLQMDYWGQGTQVTVSS | low polyreactivity
10 | QVQLVESGGGLVQAAGRLRLSSAASGIIFYSYAMGWYRQAPGTEREFVAAITNSDGSTYYADSVKGRFTISRDNAKNTVYLQMYSLKPEDTAVYMYYWGQGTQVTVSS | low polyreactivity
11 | QVQLVESGGGLVQAGGSLRLSCAASGITFGGNAMGWYRQATGKERELVAGINRSGVSTYYADSVKGRFTISRDNAKNTVYFQMNSLKPEDTAVYYCATGYFSWIYGYYYWGQGTQVTVSS | high polyreactivity
12 | QVQLVESGGGLVQAGGSLRLSCAASGRIYGGYAMGWYRQAPGKERELVAAISSRGGSTYYADSVKGRFTISRDNAKNTVYFQMNSLKPEDTAVYYFADDGRVKGWGQGTQVTVSS | high polyreactivity
13 | QVQLVESGGGLVQAGGSLRLSCAASGRTFNGYVMGWYRQAPGKEREFVAVINWSGGNTYYADSVKGRFTISRDNAKNTVNLQMNSLKPEDTAVYYCAARRVRSYAYDYWGQGTQVTVSS | high polyreactivity
14 | QVQLVESGGGLVQAGGSLRLSCAASGSTIGDNAMGWYRQAPGKERELVASITGGGGSTYYADSVKGRFTISRDNAKNTVYLQMNSLKPEDTAVYYCAAVYQSYTYYLPKYWSFYQNDYWGQGTQVTVSS | low polyreactivity
15 | QVQLVESGGGLVQAGGSLRLSCAASGSILPYNAMGWYRQAPGKERELVCSSSRGGGTNYADSVKGRFTISRDNAKNTVYLQMNSLKPEDTAVYYCAARTLRVDYDSHWYSLVDYWGQGTQVTVSS | low polyreactivity
16 | QVQLVESGGGLVQAGGSLRLSCAASGRTFYSYAIGWYREAPGKERELVASISSGGGTNYADSVKGRFTISRDNAKNTVYLQMNSLKPDDTAVYYCAAKYWIFYPYDYWGQGTQVTVSS | low polyreactivity
17 | QVQLVESGGGLVQAGGRLRLSCAASGRTFPGYDMGWYRQAPGKERELVAAITRSGGSTYYADSVKGRFTISRDNAKNTVYLQMNSLKPEDTAVYYCATERHFYYSTFYYWGQGTQVTVSS | high polyreactivity
18 | QVHLVESGGGLVQAGGSLRLSCAASGLIFGDYAMGWYRQAPGKERELVAAITGSVTRRYYADSVKGRFTISRDNAKNTVYLQMNSLKPEDTAVYYCATVGYPYTLWHQMDYWGQGTQVTVSS | low polyreactivity
19 | QVQLVESGGGLVQAGGSLRLSCAASGIIFINYAMGWYRQAPGKEWELVAAITSSGGSTYYADSVKGRFTISRDNAKNTVYLQMNSLKPEDTAVYYCAAVSSYWGQGTQVTVSS | low polyreactivity
20 | QVQLVESGGGLVQAGGSLRLSCAASGSIFDDYAMGWYRQAPGKERELVAAISDSGGSTSYADSVKGRFTISRDNAKNTVYFQMNSLKPEDTAVYYCNADRDDDYDYWGQGTQVTVSS | low polyreactivity
21 | QVQLVESGGGLVKAGGSLRLSCAASGRIFYNFSMGWSRQAHGKERELVAAISGSGGSTYYADSVKGRFTISRDNAKNTVYLQMNSLKPEDTAVYYCSTSGPQYYSRNFDYWGQGTQVTVSS | low polyreactivity

Row | Sequence | polyreactivity (PSR sort gate)
22 | QVQLVESGGGLVQAGGRLRLSCAASGSTFDVYAMGWYRQAPGKERELVAVINTSGTRTYYADSVKGRFTISRDNAKNTVYLQRNSLKPEDTAVYYCNAGGHLEMNYWGQGTQVTVSS | low polyreactivity
23 | QVQLVESGGGLVQAGGSLRLSCAASGSIFTGYAMGWYRPAPGKERELVAANRYTTTSTYYADSVKGRFTISRDNAKNTVYLQMHSLKPEDTAVYYCKGWRGTYSGDYWGQGTQVTVSS | high polyreactivity
24 | QVQLVESGGGLVQAGGSLRLSCAASGRSFPAYAMGWYRQAPGKERELVAAISQSGGSTYYADSVKGRFTISRDNAKNTVYLQMNSLKPEDTAVYYCAAGWYVSYYWYDYWGQGTQVTVSS | high polyreactivity
25 | QVQLVESGGGLVQAGGSLRLSCAASGSIFGYYAMGWYRQAPGKERELVAAITYSGGRTYYADSVKGRFTISRDNAKNTVYLQMNSLKPEDTAVYYCARAPPGDRFVRYDYWGQGTQVTVSS | high polyreactivity
26 | QVQLVESGGGLVQAGGSLRLSCAASGSIFRIYAMGWYRQAPGKERELVAAISFSTGSRTYYADSVKGRFTISRDNAKNTVYLQMNSLKPEDTAVYYCAAEYHPRVLYPNWYDYWGQGTQVTVSS | low polyreactivity
27 | QVHLVESGGGLVQAGGSLRLSCAASGYTFDSYAMGWYRQAPGKERELVAAISSGGRTKYADSVKGRFTISRDNAKNTVYLQMNSLKPEDTAFYYCAARRTFGVGILVGYWGQGTQVTVSS | high polyreactivity
28 | QVQLVESGGGLVQAGGSLRLSCAASGSTFSSYAMGWYRQAPGKERELVAAINWSGTRTYYADSVKGRFTISRDNAKNTVYLQMNSLKPEDTAVYYCAAVLSLSSRQGVITKGDYWGQGTQVTVSS | low polyreactivity
29 | QVQLVESGGGLVQAGGSLRLSCAASGRIFKTYAMGWYRQAPGKERELVAGISWRGGSTYYADSVKGRFTISRDNAKNTVYLQMNSLKPEDTAVYYCAADDTYTRYDYWGQGTQVTVSS | high polyreactivity
30 | QVQLVESGGGLVQAGGSLRLSCAASGSILGLNVMGWYRQAPGTEREVVAAISRRGGSTYYADSVKGRFTISRDNAKNTVYLQMNSLKPEDTAVYYCAATRTARTMGYWGQGTQVTVSS | high polyreactivity
31 | QVQLVESGGGLLQAGGSLRLSCAASGRTFYHYTMGWYRQAPGKERELVARITRRVGSTYYADSVKGRFTISRDNAKNIVYLQMNSLKPEDTAVYYCNSKSGVYRYLLDYWGQGTQVTVSS | high polyreactivity
32 | QVKLVESGGRLVQAGGSLRLSCAASGSIFYYYAMGWYRQAPVKERELVAAITNYADSVKGRFTISRDNAKNTVYLQMNSLKPEDTAVYYCAADWWRVEMDYWGQGTQVTVSS | low polyreactivity
33 | QVQLVESGGGLVQAGGSLRLSCAASGRTFGTNAMGWYRQAPGKERELVAAISRRGGSTYYADSVKGRFTISRDNAKNTVYLQMNSLKPEDTAVYYCAKTIGLKHEDEYWGQGTQVTVSS | low polyreactivity
34 | QVQLVQSGGGLVQAGGRLRLSCAASGRIFGFYAMGWYRQAPGKERELVAAITSTGRTYYADSVKGRFTISRDNAKNTVYLQMNSLKPEDTAVYYCAAGYGRADSGWVRMNYWGQGTQVTVSS | high polyreactivity
35 | QVQLVESGGGLVQAGGSLRLSCAASGRIFWYYAMGWYRQAPGKEWELVARISSSGGSTYYADSVKGRFTISRDNAKNTVYLQMNSLKPEDTAVYYCAKERYSGSSRYPMDYWGQGTQVTVSS | high polyreactivity
36 | QFQLVESGGGLVQAGGSLRLSCAASGRIFVPNAMGWYRQAPGKEREFVAAINSGGSTYYADSVKGRFTISRDNAKNTVYLQMNSMKPEDTAVYYCAAVDFSSGYYGRLARYYYWGQGTQVTVSS | high polyreactivity
37 | QVQLVESGGGLVQAGCSLRLSCAASGSIFYRNPMVWYRQAPGKERELVAAISSDGSTNYADSVKGRFTISRDNAKNTVYLQMNSLKPEDTAVYYCAAPWTQILDYWGQGTQVTVSS | low polyreactivity
38 | PVQLQESGGGLMQAGGNLRLSCAASGYISTHYDMDWYRQAPGKERELVARIDDGAITNYADSVKGRFTISRDNAKNTVYLQMNSLKPEDTAVYYCAVYSGDDYYHDYWGQGTQVTVSS | low polyreactivity
39 | QVQLVESGGGLVQAGGSLRLSCAASGIIFFLYAMGWYRPAPGKERELVAAISSGGSTYYADSVKGRFTISRDNAKNTVYLQMNSLKPEDTAVYYCNARYWPFRYYYWGQGTQVTVSS | high polyreactivity
40 | QVQLVESGGGLVQAGGSLRLSCAASGSIFAHNAMGWYRKAPGKERELVAAISSGGSTNYADSVKGRFTISRDNAKNTVYLQMISLKPEDTAVYYCAAVQYAPKWWGEYDYWGQGTQVTVSS | low polyreactivity
41 | QVQLVESGGGLVQAGGSLRLICAASGIFASYAMGWYRQAPGKERELVAAIRSSGGRTYYADSVKGRFTISRDNAKNTVYLQMNSLKPEDTAVYYCAVASGQSFYWGQGTQVTVSS | high polyreactivity
